In patent publication US20200165342A1:
“And” between values parts separate entries of the source, which are not always exact repeats. Equal values may be shown once.

Key:
Experiment in all cases: cell-based or functional assay
[1] = biological target: HLA-DR of the DR^str donor (HLA-DRB1 variant bound strongly by MVR), on B cells, T cells and EBV LCLs (human)
[2] = biological target: HLA-DR of the DR^int donor (HLA-DRB1 variant bound with intermediate affinity by MVR), on B cells and T cells (human)
[3] = biological target: HLA-DR of the DR^weak donor (HLA-DRB1 variant bound weakly by MVR), on B cells, T cells and EBV LCLs (human)

B1: MVR CAR (second-generation HLA-DR CAR, FLAG-tagged, from pELPS-FLAGMVRBBz, expressed on T cells or EBV LCLs) (protein)
chain: DYKDDDDKDIQMTQSSSYLSVSLGGRVTITCKASDHINNWLAWYQQKPGNAPRLLISGATSLETGVPSRFSGSGSGKDYTLSITSLQTEDVATYYCQQYWSTPFTFGSGTKLEIKGGGGSGGGGSGGGGSQVQLKESGPGLVAPSQSLSITSTVSGFSLSRYSVHWVRQPPGKGLEWLGMIWGGGSTDYNSALKSRLSISKDNSKSQVFLKMNSLQTDDTAMYYCARNEGDTTAGTWFAYWGQGTLVTVSSTTTPAPRPPTPAPTIASQPLSLRPEACRPAAGGAVHTRGLDFACDIYIWAPLAGTCGVLLLSLVITLYCKRGRKKLLYIFKQPFMRPVQTTQEEDGCSCRFPEEEEGGCELRVKFSRSADAPAYKQGQNQLYNELNLGRREEYDVLDKRRGRDPEMGGKPRRKNPQEGLYNELQKDKMAEAYSEIGMKGERRRGKGHDGLYQGLSTATKDTYDALHMQALPPR
In the case of B1, the frequency of CD4+ MVR-CAR T cells with two or more polyfunctional markers after co-culture with DR^str-EBV-LCLs [1] is reported as 71.3%, the frequency of CD8+ MVR-CAR T cells with two or more polyfunctional markers after co-culture with DR^str-EBV-LCLs [1] is reported as 29.4% and the granule influx into DR^str B cells and DR^str EBV LCLs relative to CD19 CAR T cells [1] is reported as 2 fold and 4 fold. The granule transfer rate to DR^str-EBV-LCLs relative to DR^weak-EBV-LCLs [1] was 2 to 3 times higher, the frequency of CAR T cells with two or more exhaustion markers (LAG-3, Tim-3, CTLA-4, PD-1) [2] was 65.8% and the frequency of CAR T cells with two or more exhaustion markers [3] was 9.2%. The frequency of CD4+ MVR-CAR T cells with two or more polyfunctional markers after co-culture with DR^weak-EBV-LCLs [3] was 31.6%, the frequency of CD8+ MVR-CAR T cells with two or more polyfunctional markers after co-culture with DR^weak-EBV-LCLs [3] was 26.3% and the frequency of Tim-3 expressing CAR T cells [3] was 60.7%. The surface CAR expression (MFI) relative to CD19 CAR T cells [3] was 2 fold lower.
